The target in series [1] is unmodified nucleosome core particle (H2A, H2B, H3.1, H4 and 147 bp Widom 601 DNA) (human) (UniProt P0C0S8). Kind of series: native gel or EMSA; 10 nM nucleosome core particles with rising SLF1^ARD or SLF1^ARD_4A, room temperature, 20 mins; Diamond DNA stain. A general note: A gel shift assay detects complexes by their altered migration in electrophoresis.
Series [2] deals with RAD18 peptide 437-452 (Homo sapiens) (UniProt Q9NS91). Kind of series: ITC. Particulars: cited from earlier work.
A further series concerns the target SLF1 tBRCT, 6-208 (UniProt Q9BQI6). Kind of series: thermal melt (SYPRO Orange) of SLF1tBRCT.
In the next series the target is T1, SLF1 ARD (Homo sapiens, UniProt Q9BQI6 802-934).
T1 sequence: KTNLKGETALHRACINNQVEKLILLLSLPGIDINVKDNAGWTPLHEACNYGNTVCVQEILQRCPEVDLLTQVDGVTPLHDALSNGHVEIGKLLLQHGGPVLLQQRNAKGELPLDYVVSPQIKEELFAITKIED
Kind of series: EMSA; no shift; DNA EMSA: 40 mM Tris pH 7.5, 100 mM KCl, 0.2 mM DTT, 10% glycerol, 20 ug/ml BSA, 10 nM DNA, 4 C 30 min; NCP EMSA: 10 nM NCP, room temperature 20 min; FP: 20 mM. Particulars: protein: recombinant; tags: none (His-tag cleaved by TEV); label: 5' 6-FAM on strand 1; blunt.

Another series concerns the target BRCA1 tBRCT (UniProt P38398 1646-1859). Kind of series: EMSA; no interaction observed; DNA EMSA: 40 mM Tris pH 7.5, 100 mM KCl, 0.2 mM DTT, 10% glycerol, 20 ug/ml BSA, 10 nM DNA, 4 C 30 min; NCP EMSA: 10 nM NCP, room temperature 20 min; FP: 20 mM. Particulars: protein: recombinant; tags: N-terminal non-cleavable His-tag; label: 5' 6-FAM on strand 1; blunt.
Series [3] has as its target T2, SLF1 tBRCT (Homo sapiens, UniProt Q9BQI6 6-208).
T2 sequence: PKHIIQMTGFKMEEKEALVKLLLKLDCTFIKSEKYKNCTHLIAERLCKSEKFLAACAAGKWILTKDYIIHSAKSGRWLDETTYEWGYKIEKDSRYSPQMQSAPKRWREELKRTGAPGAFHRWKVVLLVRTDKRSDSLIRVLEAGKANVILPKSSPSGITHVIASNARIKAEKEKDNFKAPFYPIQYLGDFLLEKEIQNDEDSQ
Kind of series: fluorescence polarization; 20 mM Tris pH 8.0, 150 mM NaCl, 5% glycerol, room temperature; DNA EMSA: 40 mM Tris pH 7.5, 100 mM KCl, 0.2 mM DTT, 10% glycerol, 20 ug/ml BSA, 10 nM DNA, 4 C 30 min; NCP EMSA: 10 nM NCP, room temperature 20 min; FP: 20 mM. Particulars: protein: recombinant; tags: none (His-tag cleaved by TEV); label: 5' 6-FAM on strand 1; blunt.

In a further series the target is T3, SLF1 tBRCT T13A (Homo sapiens, UniProt Q9BQI6 6-208, T13A).
T3 sequence: T2 sequence with T8A
Kind of series: thermal melt; 30 uM DNA, 10 uM protein; DNA EMSA: 40 mM Tris pH 7.5, 100 mM KCl, 0.2 mM DTT, 10% glycerol, 20 ug/ml BSA, 10 nM DNA, 4 C 30 min; NCP EMSA: 10 nM NCP, room temperature 20 min; FP: 20 mM. Particulars: protein: recombinant; tags: none (His-tag cleaved by TEV); blunt.

For series [4], the target named is T2, SLF1 tBRCT. The description is as above. Particulars: protein: recombinant; tags: none (His-tag cleaved by TEV); blunt.
In another series the target is T4, SLF1 tBRCT K56A (Homo sapiens, UniProt Q9BQI6 6-208, K56A).
T4 sequence: T2 sequence with K51A
The series is described as above. Particulars: protein: recombinant; tags: none (His-tag cleaved by TEV); blunt.

The target of series [5] is T5, SLF1^tBRCT (tandem BRCT domain of SLF1, residues 6-208) (human, UniProt Q9BQI6 6-208).
T5 construct: SLF1 (SMC5-SMC6 complex localization factor 1), human, tandem BRCT domain, residues 6-208; pHAT4 construct; also called wild-type SLF1^tBRCT; not shown: His-tag, N-terminal, cleaved
T5 sequence (looked up): T2 sequence
Kind of series: thermal melt (SYPRO Orange); 10 μM SLF1^tBRCT proteins with 200 μM RAD18 peptides; 25-95°C; Tm of SLF1^tBRCT. Particulars: both partners purified.

Changes are numbered by the printed parent chain. Non-standard residues stand in square brackets, D forms with d. pS = N[C@@H](COP(=O)(O)O)C(=O)O

For orientation: Kd means the free concentration of one partner at which half of the binding sites on the other are occupied at equilibrium, for simple one-to-one binding. Broadly, the ΔTm is the shift of the melting midpoint relative to a reference.

Sequence of SLF1 tBRCT, 6-208 (Q9BQI6 whole entry, looked up, tested part not stated): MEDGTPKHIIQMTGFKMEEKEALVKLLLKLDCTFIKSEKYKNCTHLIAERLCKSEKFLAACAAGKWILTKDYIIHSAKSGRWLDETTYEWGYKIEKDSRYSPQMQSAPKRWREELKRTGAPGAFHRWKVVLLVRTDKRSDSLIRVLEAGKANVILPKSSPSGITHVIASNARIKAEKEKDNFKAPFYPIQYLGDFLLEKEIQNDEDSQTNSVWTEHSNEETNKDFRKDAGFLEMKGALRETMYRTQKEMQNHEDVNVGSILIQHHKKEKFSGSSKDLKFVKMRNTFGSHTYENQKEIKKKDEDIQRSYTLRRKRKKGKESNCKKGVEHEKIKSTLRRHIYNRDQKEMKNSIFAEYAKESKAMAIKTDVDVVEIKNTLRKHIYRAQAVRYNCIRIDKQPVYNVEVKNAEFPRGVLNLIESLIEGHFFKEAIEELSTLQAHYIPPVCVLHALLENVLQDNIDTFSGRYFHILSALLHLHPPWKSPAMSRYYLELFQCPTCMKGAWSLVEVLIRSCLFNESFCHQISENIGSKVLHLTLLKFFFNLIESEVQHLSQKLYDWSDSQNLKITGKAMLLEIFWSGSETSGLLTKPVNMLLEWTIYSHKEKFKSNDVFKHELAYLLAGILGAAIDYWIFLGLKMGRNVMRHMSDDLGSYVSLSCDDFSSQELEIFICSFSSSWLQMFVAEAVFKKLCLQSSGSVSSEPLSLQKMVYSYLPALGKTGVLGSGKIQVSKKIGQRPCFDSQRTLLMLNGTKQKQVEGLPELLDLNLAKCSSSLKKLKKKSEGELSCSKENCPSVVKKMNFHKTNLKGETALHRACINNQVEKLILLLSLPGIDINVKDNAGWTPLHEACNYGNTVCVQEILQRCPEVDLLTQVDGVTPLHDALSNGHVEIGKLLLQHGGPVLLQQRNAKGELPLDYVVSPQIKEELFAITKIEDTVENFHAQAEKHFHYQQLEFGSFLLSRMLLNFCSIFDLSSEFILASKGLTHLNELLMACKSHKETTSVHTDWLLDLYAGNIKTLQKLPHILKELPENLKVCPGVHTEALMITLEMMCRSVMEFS
Sequence of BRCA1 tBRCT (P38398 1646-1859): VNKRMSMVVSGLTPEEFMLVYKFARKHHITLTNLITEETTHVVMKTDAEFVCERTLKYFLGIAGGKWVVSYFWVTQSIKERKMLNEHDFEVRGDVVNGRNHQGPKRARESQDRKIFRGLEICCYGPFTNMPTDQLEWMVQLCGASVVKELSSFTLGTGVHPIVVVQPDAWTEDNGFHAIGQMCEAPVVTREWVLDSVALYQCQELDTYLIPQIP

With “SLF1^ARD (ankyrin repeat domain of SLF1, residues 802-934), His-tag cleaved (from UniProt Q9BQI6 802-934) (domain or fragment)”, in series [1], the affinity is 1 to 5 µM.

On to SLF1 tBRCT (from UniProt Q9BQI6), for which the equilibrium dissociation constant (Kd) in series [2] is 12 nM.

Turning to “RAD18 441-446 (from UniProt Q9NS91) pS442/pS444 peptide”, the “other: ΔTm vs SLF1tBRCT alone” value is “stronger; reference 0.8” in the series with SLF1 tBRCT, 6-208 (reference: pS442 peptide, sites S444); “stronger; reference 0.4” with SLF1 tBRCT, 6-208 (reference: pS444 peptide, sites S442); 3.7 °C with SLF1 tBRCT, 6-208 (reference: unphosphorylated peptide SSSSDI, sites S442,S444).

B1: 50 bp DNA, 6-FAM (dsDNA)
DNA 1: TAAATGCCAATGCTGCTGATACGTACTCGGACTGATTCGGAACTGTAACG
DNA 2: CGTTACAGTTCCGAATCAGTCCGAGTACGTATCAGCAGCATTGGCATTTA
Take B1: the binding result with SLF1 ARD and in the series with BRCA1 tBRCT was “no binding” each time. Besides, the Kd with SLF1 tBRCT [3] was found to be 430 nM.

B2: 50 bp DNA, unlabelled (dsDNA)
DNA 1: B1 DNA 1
DNA 2: B1 DNA 2
For the molecule B2, the binding signal with SLF1 tBRCT T13A is 6.9 C (delta Tm); with SLF1 tBRCT [4], 7.1 C (delta Tm); with SLF1 tBRCT K56A it was 6.4 C (delta Tm).

B3: RAD18(442p,444p)^peptide (S(pS)S(pS)DI) (peptide)
peptide: Ac-S[pS]S[pS]DI-NH2
SMILES: CC[C@H](C)[C@H](NC(=O)[C@H](CC(=O)O)NC(=O)[C@H](COP(=O)(O)O)NC(=O)[C@H](CO)NC(=O)[C@H](COP(=O)(O)O)NC(=O)[C@H](CO)NC(C)=O)C(N)=O
notes: RAD18, human, residues S441 to I446; also called double phosphorylated RAD18 peptide; double-phosphorylated hexapeptide; source: synthetic peptide (Biomatik)
With B3, the ΔTm in series [5] came out at 3.7 °C.

Values taken from publication PMC11551741 (Nucleic Acids Research, 2024).
